Measurements reported in patent publication US20210032299A1 (Eli Lilly, published 2021).
Starred links: 1 amine or outer side, 2 acyl side, 3 side chain; linkers in the order of their positions; H or OH if unused. Non-standard residues stand in square brackets, D forms with d. Groups on a side chain read outwards from the residue. No end group written: not given here. *: point of attachment. C20 diacid = O=C(O)CCCCCCCCCCCCCCCCCCC(=O)*; γGlu = O=C(O)[C@H](CCC(=O)[*:2])N[*:1]; αMeL = CC(C)C[C@](C)(N)C(=O)O; AEEA = NCCOCCOCC(=O)O; Aib = CC(C)(N)C(=O)O

T1: human glucose-dependent insulinotropic polypeptide (GIP) receptor (human, UniProt P48546 22-466)
T1 construct: whole, on cells; Assayed as crude membranes of stably transfected CHO cells; also called hGIPR; human GIP receptor
T1 sequence (looked up): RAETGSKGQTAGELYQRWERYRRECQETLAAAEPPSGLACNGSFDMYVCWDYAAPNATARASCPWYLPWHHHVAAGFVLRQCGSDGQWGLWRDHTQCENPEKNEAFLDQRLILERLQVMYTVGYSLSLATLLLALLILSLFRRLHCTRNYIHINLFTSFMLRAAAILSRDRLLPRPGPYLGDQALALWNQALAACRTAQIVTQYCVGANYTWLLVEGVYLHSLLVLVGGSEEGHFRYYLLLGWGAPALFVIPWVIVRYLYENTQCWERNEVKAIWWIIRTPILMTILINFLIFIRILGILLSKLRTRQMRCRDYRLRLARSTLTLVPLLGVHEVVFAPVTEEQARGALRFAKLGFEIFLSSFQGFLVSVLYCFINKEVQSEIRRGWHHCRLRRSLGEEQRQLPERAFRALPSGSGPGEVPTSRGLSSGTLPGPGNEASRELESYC


Tests used:
human GLP-1 receptor = target: T2, human GLP-1 receptor (human, UniProt P43220 24-463); experiment: SPA, displacement of [125I]-GLP-1 from hGLP-1R membranes, 0.1% bacitracin
T2 construct: whole, on cells; Assayed as crude membranes of stably transfected HEK293 cells; also called hGLP1R; hGLP-1R
Summary of the method: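 Binding buffer: 25 mM HEPES pH 7.4, 2.5 mM CaCl₂, 1 mM MgCl₂, 0.1% bacitracin, 0.003% Tween-20, protease inhibitors without EDTA. Four-parameter nonlinear regression; Kᵢ given as geometric mean ± SEM, n = independent replicates run on different days.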

[1] = target: T1, human glucose-dependent insulinotropic …; experiment: SPA, displacement of [125I]-GIP from hGIPR membranes, 0.1% bacitracin
human glucagon receptor = target: T3, human glucagon receptor (human, UniProt P47871 26-477); experiment: SPA, displacement of [125I]-Gcg from hGcgR membranes, 0.1% bacitracin
T3 construct: whole, on cells; Assayed as crude membranes of stably transfected HEK293 cells; also called hGcgR; GcgR
T3 sequence (P47871 26-477): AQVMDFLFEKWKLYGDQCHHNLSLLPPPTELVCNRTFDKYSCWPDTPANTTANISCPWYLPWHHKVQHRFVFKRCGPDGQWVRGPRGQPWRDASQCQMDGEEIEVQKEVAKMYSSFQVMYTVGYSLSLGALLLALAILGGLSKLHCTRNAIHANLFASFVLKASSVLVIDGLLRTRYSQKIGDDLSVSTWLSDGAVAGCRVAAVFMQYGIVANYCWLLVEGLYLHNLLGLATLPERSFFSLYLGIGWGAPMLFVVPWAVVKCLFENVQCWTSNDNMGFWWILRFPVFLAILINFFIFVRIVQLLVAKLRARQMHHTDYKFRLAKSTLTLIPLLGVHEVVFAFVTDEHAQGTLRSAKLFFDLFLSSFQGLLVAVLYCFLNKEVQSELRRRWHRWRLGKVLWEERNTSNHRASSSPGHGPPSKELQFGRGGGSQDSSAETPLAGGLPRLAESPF
Summary of the method: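 Binding buffer: 25 mM HEPES pH 7.4, 2.5 mM CaCl₂, 1 mM MgCl₂, 0.003% Tween-20, protease inhibitors without EDTA. Counted by scintillation after 12 h incubation/settling at room temperature. Four-parameter nonlinear fit; Kᵢ given as geometric mean ± SEM of independent replicates run on different days.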

| Binder | Ki (human GLP-1 receptor) | Ki [1] | Ki (human glucagon receptor) |
| --- | --- | --- | --- |
| Y[Aib]EGTFISDYSI[αMeL]LDKK([AEEA-AEEA-γGlu-C20 diacid])HQ[Aib]DFVEYLLAGGPSSGAPPPS-NH2 (N-terminus assumed; SMILES CC[C@H](C)[C@H](NC(=O)[C@H](Cc1ccccc1)NC(=O)[C@@H](NC(=O)CNC(=O)[C@H](CCC(=O)O)NC(=O)C(C)(C)NC(=O)[C@@H](N)Cc1ccc(O)cc1)[C@@H](C)O)C(=O)N[C@@H](CO)C(=O)N[C@@H](CC(=O)O)C(=O)N[C@@H](Cc1ccc(O)cc1)C(=O)N[C@@H](CO)C(=O)N[C@H](C(=O)N[C@@](C)(CC(C)C)C(=O)N[C@@H](CC(C)C)C(=O)N[C@@H](CC(=O)O)C(=O)N[C@@H](CCCCN)C(=O)N[C@@H](CCCCNC(=O)COCCOCCNC(=O)COCCOCCNC(=O)CC[C@H](NC(=O)CCCCCCCCCCCCCCCCCCC(=O)O)C(=O)O)C(=O)N[C@@H](Cc1c[nH]cn1)C(=O)N[C@@H](CCC(N)=O)C(=O)NC(C)(C)C(=O)N[C@@H](CC(=O)O)C(=O)N[C@@H](Cc1ccccc1)C(=O)N[C@H](C(=O)N[C@@H](CCC(=O)O)C(=O)N[C@@H](Cc1ccc(O)cc1)C(=O)N[C@@H](CC(C)C)C(=O)N[C@@H](CC(C)C)C(=O)N[C@@H](C)C(=O)NCC(=O)NCC(=O)N1CCC[C@H]1C(=O)N[C@@H](CO)C(=O)N[C@@H](CO)C(=O)NCC(=O)N[C@@H](C)C(=O)N1CCC[C@H]1C(=O)N1CCC[C@H]1C(=O)N1CCC[C@H]1C(=O)N[C@@H](CO)C(N)=O)C(C)C)[C@@H](C)CC) [Example 53] | 62.9 nM | 0.0184 nM | 152 nM |
| Y[Aib]EGTFISDYSI[αMeL]LDKK([AEEA-AEEA-γGlu-C20 diacid])HQ[Aib]EFVEYLLEAGPSSGAPPPS-NH2 (N-terminus assumed; SMILES CC[C@H](C)[C@H](NC(=O)[C@H](Cc1ccccc1)NC(=O)[C@@H](NC(=O)CNC(=O)[C@H](CCC(=O)O)NC(=O)C(C)(C)NC(=O)[C@@H](N)Cc1ccc(O)cc1)[C@@H](C)O)C(=O)N[C@@H](CO)C(=O)N[C@@H](CC(=O)O)C(=O)N[C@@H](Cc1ccc(O)cc1)C(=O)N[C@@H](CO)C(=O)N[C@H](C(=O)N[C@@](C)(CC(C)C)C(=O)N[C@@H](CC(C)C)C(=O)N[C@@H](CC(=O)O)C(=O)N[C@@H](CCCCN)C(=O)N[C@@H](CCCCNC(=O)COCCOCCNC(=O)COCCOCCNC(=O)CC[C@H](NC(=O)CCCCCCCCCCCCCCCCCCC(=O)O)C(=O)O)C(=O)N[C@@H](Cc1c[nH]cn1)C(=O)N[C@@H](CCC(N)=O)C(=O)NC(C)(C)C(=O)N[C@@H](CCC(=O)O)C(=O)N[C@@H](Cc1ccccc1)C(=O)N[C@H](C(=O)N[C@@H](CCC(=O)O)C(=O)N[C@@H](Cc1ccc(O)cc1)C(=O)N[C@@H](CC(C)C)C(=O)N[C@@H](CC(C)C)C(=O)N[C@@H](CCC(=O)O)C(=O)N[C@@H](C)C(=O)NCC(=O)N1CCC[C@H]1C(=O)N[C@@H](CO)C(=O)N[C@@H](CO)C(=O)NCC(=O)N[C@@H](C)C(=O)N1CCC[C@H]1C(=O)N1CCC[C@H]1C(=O)N1CCC[C@H]1C(=O)N[C@@H](CO)C(N)=O)C(C)C)[C@@H](C)CC) [Example 65] | 305 nM | 0.0316 nM | 279 nM |
| Y[Aib]EGTFISDYSI[αMeL]LDKK([AEEA-AEEA-γGlu-C20 diacid])HQ[Aib]EFVEYLLETGPSSGAPPPS-NH2 (N-terminus assumed; SMILES CC[C@H](C)[C@H](NC(=O)[C@H](Cc1ccccc1)NC(=O)[C@@H](NC(=O)CNC(=O)[C@H](CCC(=O)O)NC(=O)C(C)(C)NC(=O)[C@@H](N)Cc1ccc(O)cc1)[C@@H](C)O)C(=O)N[C@@H](CO)C(=O)N[C@@H](CC(=O)O)C(=O)N[C@@H](Cc1ccc(O)cc1)C(=O)N[C@@H](CO)C(=O)N[C@H](C(=O)N[C@@](C)(CC(C)C)C(=O)N[C@@H](CC(C)C)C(=O)N[C@@H](CC(=O)O)C(=O)N[C@@H](CCCCN)C(=O)N[C@@H](CCCCNC(=O)COCCOCCNC(=O)COCCOCCNC(=O)CC[C@H](NC(=O)CCCCCCCCCCCCCCCCCCC(=O)O)C(=O)O)C(=O)N[C@@H](Cc1c[nH]cn1)C(=O)N[C@@H](CCC(N)=O)C(=O)NC(C)(C)C(=O)N[C@@H](CCC(=O)O)C(=O)N[C@@H](Cc1ccccc1)C(=O)N[C@H](C(=O)N[C@@H](CCC(=O)O)C(=O)N[C@@H](Cc1ccc(O)cc1)C(=O)N[C@@H](CC(C)C)C(=O)N[C@@H](CC(C)C)C(=O)N[C@@H](CCC(=O)O)C(=O)N[C@H](C(=O)NCC(=O)N1CCC[C@H]1C(=O)N[C@@H](CO)C(=O)N[C@@H](CO)C(=O)NCC(=O)N[C@@H](C)C(=O)N1CCC[C@H]1C(=O)N1CCC[C@H]1C(=O)N1CCC[C@H]1C(=O)N[C@@H](CO)C(N)=O)[C@@H](C)O)C(C)C)[C@@H](C)CC) [Example 64] | 477 nM | 0.022 nM | 196 nM |
| Y[Aib]EGTFISDYSI[αMeL]LDKK([AEEA-AEEA-γGlu-C20 diacid])HQ[Aib]EFVEYLLEQGPSSGAPPPS-NH2 (N-terminus assumed; SMILES CC[C@H](C)[C@H](NC(=O)[C@H](Cc1ccccc1)NC(=O)[C@@H](NC(=O)CNC(=O)[C@H](CCC(=O)O)NC(=O)C(C)(C)NC(=O)[C@@H](N)Cc1ccc(O)cc1)[C@@H](C)O)C(=O)N[C@@H](CO)C(=O)N[C@@H](CC(=O)O)C(=O)N[C@@H](Cc1ccc(O)cc1)C(=O)N[C@@H](CO)C(=O)N[C@H](C(=O)N[C@@](C)(CC(C)C)C(=O)N[C@@H](CC(C)C)C(=O)N[C@@H](CC(=O)O)C(=O)N[C@@H](CCCCN)C(=O)N[C@@H](CCCCNC(=O)COCCOCCNC(=O)COCCOCCNC(=O)CC[C@H](NC(=O)CCCCCCCCCCCCCCCCCCC(=O)O)C(=O)O)C(=O)N[C@@H](Cc1c[nH]cn1)C(=O)N[C@@H](CCC(N)=O)C(=O)NC(C)(C)C(=O)N[C@@H](CCC(=O)O)C(=O)N[C@@H](Cc1ccccc1)C(=O)N[C@H](C(=O)N[C@@H](CCC(=O)O)C(=O)N[C@@H](Cc1ccc(O)cc1)C(=O)N[C@@H](CC(C)C)C(=O)N[C@@H](CC(C)C)C(=O)N[C@@H](CCC(=O)O)C(=O)N[C@@H](CCC(N)=O)C(=O)NCC(=O)N1CCC[C@H]1C(=O)N[C@@H](CO)C(=O)N[C@@H](CO)C(=O)NCC(=O)N[C@@H](C)C(=O)N1CCC[C@H]1C(=O)N1CCC[C@H]1C(=O)N1CCC[C@H]1C(=O)N[C@@H](CO)C(N)=O)C(C)C)[C@@H](C)CC) [Example 63] | 327 nM | 0.0248 nM | 185 nM |
| Y[Aib]EGTFISDYSI[αMeL]LDKK([AEEA-AEEA-γGlu-C20 diacid])HQ[Aib]DFVEWLLAGGPSSGAPPPS-NH2 (N-terminus assumed; SMILES CC[C@H](C)[C@H](NC(=O)[C@H](Cc1ccccc1)NC(=O)[C@@H](NC(=O)CNC(=O)[C@H](CCC(=O)O)NC(=O)C(C)(C)NC(=O)[C@@H](N)Cc1ccc(O)cc1)[C@@H](C)O)C(=O)N[C@@H](CO)C(=O)N[C@@H](CC(=O)O)C(=O)N[C@@H](Cc1ccc(O)cc1)C(=O)N[C@@H](CO)C(=O)N[C@H](C(=O)N[C@@](C)(CC(C)C)C(=O)N[C@@H](CC(C)C)C(=O)N[C@@H](CC(=O)O)C(=O)N[C@@H](CCCCN)C(=O)N[C@@H](CCCCNC(=O)COCCOCCNC(=O)COCCOCCNC(=O)CC[C@H](NC(=O)CCCCCCCCCCCCCCCCCCC(=O)O)C(=O)O)C(=O)N[C@@H](Cc1c[nH]cn1)C(=O)N[C@@H](CCC(N)=O)C(=O)NC(C)(C)C(=O)N[C@@H](CC(=O)O)C(=O)N[C@@H](Cc1ccccc1)C(=O)N[C@H](C(=O)N[C@@H](CCC(=O)O)C(=O)N[C@@H](Cc1c[nH]c2ccccc12)C(=O)N[C@@H](CC(C)C)C(=O)N[C@@H](CC(C)C)C(=O)N[C@@H](C)C(=O)NCC(=O)NCC(=O)N1CCC[C@H]1C(=O)N[C@@H](CO)C(=O)N[C@@H](CO)C(=O)NCC(=O)N[C@@H](C)C(=O)N1CCC[C@H]1C(=O)N1CCC[C@H]1C(=O)N1CCC[C@H]1C(=O)N[C@@H](CO)C(N)=O)C(C)C)[C@@H](C)CC) [Example 54] | 49.9 nM | 0.0326 nM | 386 nM |
